# A protein production outcome set (Wang et al. 2014)
# Assay: label from the status in PepcDB records
# 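Note: failed if final PepcDB status was selected cloned or expressed and not failed if soluble or beyond.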
row,Sequence,protein production
1,MKNFWKKYHKWVGLFFSFFILMFCFSGIVLNHRTLFSKAEVSRNWMPESYHYKNWNNGIIKGTLRLPDGKILAYGNAGVWKTDSCFATFADFNRGLAEGIDNRKISNIVRVANNDIWCAGLYSIYLLNHDSWKEYPIAGNDERISDITQRGDTLVILTRSYLYTSVSPYDEFRKTELKTPENYSPKTSLFRTIWLLHSGELFGTPGKLAVDFLGVVLIVLSATGIIYTLLPPFIRRRHRKRLPVKTQAKALKTSLNWHNKLGTWLIGLTLLLSVTGMCLRPPLMIPFVLVNTRPVPGSTLDSDNPWHDKLRSIRWDASRNVWLLSSSMGFYRINDLQLPPVKLKQTPPVSPMGVNVFHPQSPDEWLIGSFSGLFVWNPSTGTVLDYYTGQPPAAVHGRPLGGSLVNGFTDDLVTREVIFEYDNGARNKENNLVLPAMPDLIKQQPMSLWNFCLELHVGRCYSPFLGVFSDLFVFISGLLLTLILISGYIVYKRHHKRSKKIRMH,failed
2,MKNIAFFDFDGTITSTDSYTPFIFQTIPASRMKKGKFLLAPYILGYRLKLIRGTVLRSKIFKLGFAGLDADEIQQKGLSFSQSYLPQIIRPQALERIQWHLAQGDHVVVVSASMDVYLKPWCTQYGLDLLCSEVDTINGKITGIYKNGDCSREVKKQRILDNYDLSLYAAIYAYGDTIEDQAMLSLATHGFYRWQPINPR,failed
3,MKNIIACIDGSPTTFATCEASAWVASKINAPLILLHALDKTMRPVVSEFSGQIGLGSQEELLNELAELDEARSKVALKHGKKLLEEATEWVIKKGLTNVEQLQRHGSLLESLIDLENQLRVLVIGKLGEDQSSNKTIGSQLESIIRSIKSHTLVVT,failed
4,MKNIINILDDLTINKIAAGEVVERPSSVVKELIENSIDAGANKISIDIIDGGKSLIKITDNGIGIPSSEVEKSFLRHATSKIKKIDDLYDLYSLGFRGEALASISAVSKLEMTTKTKDEIIGTKIYVEGGKIISKEPIGFTNGTTIIIKDIFFNTPARQKFLKSTHAETINISDLINKLAIGNPNIQFKYTNNNKQMLNTPGDGKLVNTIRSIYGKEITENIIDVEFKCNHFKMNGYIGNNNIYRSNKNLQHIYINKRFVKSKIIIDAITESYKSIIPIGKHAVCFLNIEVDPSCIDVNIHPNKLEIKFEKEQEVYIELRDFLKVKLIHSNLIGKYATYSDKKTQPRIAINSREKSTDYKLRNNDLLESTPKNSNITKGKDEVIEVVTLSSEKPINEFQSVSEVLNASVEDDVKNINYLSEDSANDNIQEEFQVDGIKNEGNYYLGDSIKDSEEEYLCSSKRKFSLYGYSVIGVVFNTYIILSKDDSMYLLDQHAAHERILYERYMEKFYRQDINMQILLDPVVIEVSNVDMLQIENNLELFMKFGFELEIFGNNHIMVRCVPTIFGVPETEKFILQIIDNIEEITSNYDLKGERFASMACRSAIKANDKIYDIEIKSLLEQLEKCENPFTCPHGRPIMVEISKTEIEKMFKRIM,failed
5,MKNIKIMRLVTGEDIIGNISESQGLITIKKAFVIIPMQATPGKPVQLVLSPWQPYTDDKEIVIDDSKVITITSPKDDIIKSYESHTSEIITPSGLITET,not failed
6,MKNLYILIFACLAISAQGQQLLNSDFENWTNHPGSGGYSSYDEADNWASGNAAVNIAPGLTPPTTKTTDAQHGNAAVKLTTQSIFGQIAAGNLFTGKFQLNLSNPVKSVQMGIPYVSRPSAFNVYYKYAPVNGDSCAIYVLLTKYNTSTKKTDTIGRGHFSSTANVSVYTLLHIPVTYTSTAAPDSIAMVFTSSADGGNFRGQVGSSLTVDNFSLEFEELSIATSLAAVSAVLYPNPAQSRVALSNAPSESGTVYFYNVAGKLVSSQKWTGTVSPEFALDNMPAGFYTCKFITSDTAVFSGKLLITE,failed
7,MKNPDYEPSKPHHTPDGFRNRYPHAPRDSNGSAWKWMRERRRLGLPKPPTADLSCVPPDLAAIRRPSAVPQVTWIGHETLLLQIDGLNVLTDPVFGERASPLPFAGPRRHQPPGLSLAQLPHIDLVLLSHNHYDHLCRASVRALMRQPGGAPMFFVPLGIDRWFKRHVRGTRLSGEHVNVRAFDWDTEARFGPFSVHFCAVQHWSARGLYDRNRTLWGSWALLHPQLRFWFSGDLGYSQDTRDIGARFGHFDVAAIAVGAYEPRWFMKTQHIDPAEAVQVMQDIGARHAVGIHWGTFPLTDEPLDQPIADLANALRARDIDAERFVLFRHGETRVWDAQAARLLTPAEQQKARPRVDSLAAQ,failed
8,MKNTKFSIKKIKNISNDPKVVHTKGALLEKMGKMESAIELYKSAALDNYVKSQYTLGNIYESKKQFKEAEKWYSMAYKSGSEDAAFDLGNMYYKLDGYEYAIYWYEKIANLGYLQAQNNLGVCHFKMKDFVRCEKWLKTAADKNLGKACFNLGVLYTFLEKDDEAYEYYKKGSVLLDDDAKYNLAILNGKKKDNKSTVSLYKQLYKSGHMKGCFNLGMIMEINDNLEDAEKYYKKSADRDDVKSEYRLAYVYDRKEELGDAIYYYEKAIEKNHTLSKYRLANLYNRENEIEKAKTYYKMAAEDDITEAKNNLAGIYFEEKDYENAIKYYEDAIAVGCKSSLENLGDLYYQNQDIEKAISYYSRIPNNVSCQIKLGNIYEDLNNIEEAISWYKKASENGDTRSSYRLGCIYESLGNTKNARKYFEMASSKNHMNARIHLGRIYFREGKLEESKMMFDTPANENNVYAQHMVGLIYDMFYKDYVNSKFWYEKARAQGCVESIYNLGQIYLKLNDDAEAEKYYKEGIKYGSKKCEYMLAGLYYKKSLDMYISLANEEYDNCEEIVEGFPNLNIDFDEVLIPPFKLQEEVIDEEEYVPIYILNIKESLDSMLEGLETEMIIDEEHDS,failed
9,MKNVLILGAGGQIARHVINQLADKQTIKQTLFARQPAKIHKPYPTNSQIIMGDVLNHAALKQAMQGQDIVYANLTGEDLDIQANSVIAAMKACDVKRLIFVLSLGIYDEVPGKFVEWNNAVIGEPLKPFRRAADAIEASGLEYTILRPAWLTDEDIIDYELTSRNEPFKGTIVSRKSVAALITDIIDKPEKHIGENIGINQPGTDGDKPFFM,not failed
10,MKNVLYICIGALLAVLAFSSCNDGIDIRQDYDFSLSSWYLQKQIATGETVEIRFYLDREGDYEKAEYEIGYIQMEGKGEVSDCEGVKLVNREVKPLAEVPGLDTENPVKQVFTLFYRSTSARRSELKFFVRDNFGQEREMTVTFDTESGTTEE,failed
11,MKNYLQILRETLKAMLSKPMWLMVVASVCITSLPYMNHTALDLPVAVVDEDHSDVSRELVRLLDSAPKVAVVGYDSLPQAKRDLAWRKLYAIIVIPLNFEKRLLRGEALVIPYFGDATNRMANGQIQQDISAVYSALTNRYNAALLEREGFTATQAQVVLSPLVGQLTDLFNPGISFAAIVLPGLLSLILQHSLLLGCTRGNIMLRGGTPRYMRQPLSTRFGRYSAQLLIWTVLAMLFYVIWPHLLGYRQSASFFMLLGIVLPFLIAVIALSEFIAELLPTEESVYLTMTFITLPLFYMAGYSWPEQAMPDWVRWLADAIPSTWAIRAIAEMNQMDLPLREVSDHALVLLGMAATYALLGTLLYQYRNWRWDNVKGW,failed
12,MKPEISIIVPIYNVEKYLSKCIDSILNQSFTNFELILVNDGSNDRSGIICDEYTLKDERIRVIHKKNGGVSSARNSGISLALGKYIGFVDPDDYIKEEMYEILYNLCKKYKTDISICKLGREINGTLINNEENGEIIELDNVNGLKELFKGILYRFSLCNKLFKRECFRGVIFPEGRIHEDLSTTYRLFANAKKSIYFDYVGYIYVKRENSILTTTYNEKRLQAFIGWNEILEFMINKYPMLEDNVVACFGYSCIDHSNYILNQVIGFNNKIRLLNFIRYEVKQRFSLLVKNKILINKLKLILILLMLNSRFLIISKYKGKGVYRKRIRI,failed
13,MKPKLILMSHGRMAEETLASTQMIVGELADAAIVSMTAEDGLSGTQAKLAAILKEAGNVPTLVLADLKGGTPCNVAMMAMGTYPQLRVVAGLNLAMAIEAAVSPVENVDELAAYLTQIGQSAVTTIDLPELTDEEEFEE,not failed
14,MKPLSARQQQVLQATVHHYVDTMEPVGSRTLVQRFGIPASSATVRSAMGALEKRGLLTQPHTSAGRIPSALGYRCYVDDLLPEPGVAVQHLERELTGLSLRWAALDDLLQQLARRLTDFTGLMSLITRPQQPRAQLEAIRLVQSGDRLLVMLVEDSGRASHLNLRLPPGASDELTAIERWTDQQLEDGSINWRSLPPQLQRSGDVLRSALDHPSMSPETPLVVHGLSRLVAEPEFHSTAELRPLLELIDDQPCAVVSATDQPGVWIGEEHPQKALQACSVVQAPYRCGQEGVGQVALVGPMRMAYATAHAAVQRVARHLDLLLN,failed
15,MKPNFSRDYQLKWLFYVYCVRSEVGEEEEKKKVTKKTRKRVRFDLNVQTYEPIVPSRYENACSDDEEGKGGRSKGSSAIDKKPEDLSSRSVYPSNYRYHNCVDSFEDEDDEMGYGESDLEDEDYYTDNENDYEDDADDEDEEEEEENEQDVAPLLNPVENLAQWKAVKARPVKVKRVMKENVEEDMDDQAKPLLKEIIVNTSLSNWLASPKSLHANGSSKRSPIVDITNMENR,failed
16,MKPQLSWKVGGQQGEGIESTGEIFATAMNRKGYYLYGYRHFSSRIKGGHTNNKIRVSTTPVHAISDDLDILIAFDQETIDVNHHEMREDSIILADAKAKPVKPEGCHAQLIELPFTATAKELGTALMKNMVAIGATSALMNLNTNTFEELITNMFSKKGDKVVEVNIQALNEGYQLMQSRLPEIDGDFELESTDALPHLYMIGNDAIGLGAIAAGSQFMAAYPITPASEVMEYMIANISKVNGAVIQTEDEIAAVTMAIGANYGGVRAFTASAGPGLSLMMEAIGLSGMTETPLVIINTQRGGPSTGLPTKQEQSDLMQMIYGTHGDIPKIVVAPTDAEDAFYLTMEAFNLAEQYQCPVIVLSDLQLSLGKQTVEKLDYNRIEIKRGEIIQSDIEREEDDKGYFKRYALTSNGVSPRPIPGVKGGIHHITGVEHNEEGKPSESASNRQQQMEKRMRKIEQLLIESPVEANLQHEDADILYIGFISTKGAIQEGSNRLNQQGIKVNTIQIRQLHPFPTSVIQDAVNKAKKVVVVEHNYQGQLASIIKMNVNIHDKIENYTKYDGTPFLPHEIEEKGKIIATEIKEMV,not failed
17,MKPRNIAIACGVAGVAVSLAAATGIVYHKQIKSAASLKRLTGYADGYDLYAIDIAYDYDLNRIIAAGVRDDQAYIDAVVAQVLPGVPVHVQAPQFACSAFVAVDAEGRVRTGRNYDFKDDTSALLVRNHPRGGYASIGFAALNNLGDNTPLDSVAGRAAALMGPFGQLDGVNECGVSIAVLTLDSKPCDQDAQRPVINTSLAIRLVLDRAATTQEAVDLLSAYDMHAMAGRDYHFFINDAAGDARVVEWDPRDPDRAFKATPVRQVTNFYACYGDEVLPNQKNGELGHGKERAIAIADVLDAHVGAQDEAVAWKALRAAAQEPNPKDITSNTQWSVVFDNTEPAAAITLRRHWGDVDAFAL,failed
18,MKPSFKKLLLLFSIITILSIACTPHAKASGRSWKSWFIEQYFWLKRDKSYYKVQDESSFQKYLNASREQSDKGYYLDPNSVNGGLVQERLFDMQVYSWNDNGKANQKTIFYLAGGSYLNNPTPYHISMLKTLSTSLDAKIILPIYPKTPRYTYDYAIPRLVNLYRHFHEKNANLTLMGDSAGGGLALGLAHALSHQSGQEAIPQPKNIILLSPWLDVTMKHPEIPKYEDTDPILSAWGLARVGEIWANGSNNTNHTYVSPKNAPATKLAPITLFTGTREIFFPDIRDYAAQLQAANHPVNYIAQEGMNHVYPIYPIEEAKTAQYQMIDIINKTP,failed
